From patent publication US20050203007A1 (REGENTS OF THE UNIVERSITY OF MICHIGAN, published 2005) come the findings set out here.

The Ki is a dissociation constant, usually derived from enzyme kinetics or from competition with a known ligand. Low values mean higher affinity, high ones lower affinity.

The target in experiment [1] is T1, secreted, soluble furin (human, UniProt P09958 108-715, limits assumed).
T1 construct: Secreted, soluble construct; also called human furin
In words: rapid furin inhibition assay; table lists substitutions with equal or enhanced inhibition of furin relative to the template. On the procedure:
3. Rapid screening of libraries. Libraries were introduced into E. coli BL21 (DE3) cells and individual, cloned transformants were grown by shaking at 37° C. in 200 μl LB containing […] kanamycin in 96-well, 0.45 μm GHP membrane filter plates (Gelman) (FIG. 2). When O.D. 600 values reached 0.4, 60 μl of culture were transferred to secondary 96-well plates (Falcon), adjusted to 10% glycerol, and stored at −80° C. These frozen stocks served as master copies of the libraries. IPTG was added to the cultures to a final concentration of 1 mM, and the cultures were allowed to express eglin c variants for one hour in the filter plate. Expressed eglin c variants were extracted from the cells with 50 mM Tris-HCl pH 8.0 containing 2 mM EDTA following freezing and thawing. These extracts were collected as filtrates by centrifugation of the filter plate above a second plate. The filtrates, representing partially purified eglin c variants, were analyzed using a rapid fluorescence-based assay for processing enzyme inhibition as described below in Section 5. […] Frozen cells were cultured in 50 to 100 ml culture volumes, and DNA maxipreps were performed; the DNA preparations were then sequenced by automated DNA sequencing. Selected variants were expressed and purified on a larger scale, and affinities for furin or Kex2 were examined quantitatively (see below).
5. Rapid protease inhibition assay. Novel eglin variants were diluted 50-fold and incubated with secreted, soluble furin (0.5 nM) for 15 min in 96-well plates. The furin substrate (Boc-Arg-Val-Arg-Arg-MCA) was added, and release of AMC was monitored continuously in a 96-well fluorescence plate reader for 20 min, as described under Example 1. […] The plasmid DNA encoding such eglin c variant inhibitors were isolated and sequenced.

For experiment [2], the target named is T2, secreted, soluble Kex2 (Saccharomyces cerevisiae, UniProt P13134 114-613, limits assumed).
T2 construct: Secreted, soluble construct; also called kexin
T2 sequence (looked up): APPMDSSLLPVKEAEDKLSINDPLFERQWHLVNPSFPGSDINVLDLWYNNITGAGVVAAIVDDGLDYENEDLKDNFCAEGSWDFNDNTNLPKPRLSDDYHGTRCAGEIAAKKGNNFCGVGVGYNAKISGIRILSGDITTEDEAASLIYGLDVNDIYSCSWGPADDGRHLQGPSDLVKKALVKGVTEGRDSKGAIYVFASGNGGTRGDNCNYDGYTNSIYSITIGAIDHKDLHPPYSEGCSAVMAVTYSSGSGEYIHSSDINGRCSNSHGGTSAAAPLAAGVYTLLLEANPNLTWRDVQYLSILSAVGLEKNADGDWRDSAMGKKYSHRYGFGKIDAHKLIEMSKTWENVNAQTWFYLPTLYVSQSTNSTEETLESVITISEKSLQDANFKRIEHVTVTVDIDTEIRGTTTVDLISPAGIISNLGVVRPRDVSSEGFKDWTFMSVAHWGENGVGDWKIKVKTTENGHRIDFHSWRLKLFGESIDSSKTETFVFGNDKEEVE
The experiment is described as follows: enzyme inhibition, purified variant.

For experiment [3], the target named is T1, secreted, soluble furin. The experiment is described as follows: enzyme inhibition, purified variant.
A further experiment concerns the target T3, human PC7 (human, UniProt Q16549 142-667, limits assumed).
T3 sequence (looked up): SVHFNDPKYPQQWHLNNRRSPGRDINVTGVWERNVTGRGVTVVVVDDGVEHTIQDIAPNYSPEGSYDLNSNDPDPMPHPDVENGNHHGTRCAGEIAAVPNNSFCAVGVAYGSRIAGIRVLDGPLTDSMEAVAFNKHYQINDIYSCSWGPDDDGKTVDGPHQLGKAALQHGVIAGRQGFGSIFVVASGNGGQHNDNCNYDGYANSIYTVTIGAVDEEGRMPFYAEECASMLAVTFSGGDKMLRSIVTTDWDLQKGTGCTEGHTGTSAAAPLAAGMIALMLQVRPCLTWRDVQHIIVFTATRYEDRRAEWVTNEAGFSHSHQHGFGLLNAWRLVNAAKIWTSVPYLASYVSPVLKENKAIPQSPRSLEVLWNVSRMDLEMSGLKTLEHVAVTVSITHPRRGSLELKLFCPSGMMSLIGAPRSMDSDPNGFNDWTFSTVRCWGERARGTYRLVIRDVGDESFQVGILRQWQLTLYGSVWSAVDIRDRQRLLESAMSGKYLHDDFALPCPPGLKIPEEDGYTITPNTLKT
The experiment is described as follows: enzyme inhibition, purified variant.

Experiment [4] concerns the target T2, secreted, soluble Kex2. In words: enzyme inhibition, purified variant. The method, then:
(§1) Affinities of eglin variants with secreted, soluble Kex2 (hereafter “Kex2”; Brenner, C. and Fuller, R. S. (1992) Proc. Natl. Acad. Sci. USA 89: 922-926) and secreted, soluble furin (hereafter, “furin”; Bravo, D. A. et al (1994) J. Biol. Chem. 269: 25830-25837; and Komiyama & Fuller (2000) Biochemistry 39: 15156-15165) were measured by incubating variants with the enzymes (˜0.5 to 2.0 nM) for 45 min to 1 h at 21° C. in one of two enzyme assay buffers. For Kex2, the buffer was 200 mM Bistris (pH 7.27) containing 1 mM CaCl₂ and 0.1% Triton X-100; and for furin, the buffer was 20 mM NaMES (pH 7.0) containing 1 mM CaCl₂ and 0.1% Triton X-100 for furin. 100 to 200 μL aliquots of reaction mixtures were transferred into triplicate wells of opaque 96 well plates (Costar), and residual enzyme activity was measured with an fmax fluorescence micro plate reader (Molecular Devices) by monitoring hydrolysis of a fluorogenic substrate Boc-Arg-Val-Arg-Arg-MCA. Data were graphically analyzed (KaleidaGraph) with an equation developed by Green and Work (1953). Site-directed mutagenesis at P2 and P6 of eglin c generated temporary inhibitors (Table 3) and exhausted possibility to improve affinity further with this approach.
The source holds these as a separate data set.

Experiment [5] has as its target T1, secreted, soluble furin. In words: enzyme inhibition, purified variant. The method, then:
as §1
The source holds these as a separate data set.

Experiment [6] concerns the target T2, secreted, soluble Kex2. The experiment is described as follows: equilibrium enzyme inhibition. The method, then: (§2) Thus, R1-eglin refers to substitution of Arg at position P1.
(§3) Affinities of eglin variants with secreted, soluble Kex2 (hereafter “Kex2”; Brenner, C. and Fuller, R. S. (1992) Proc. Natl. Acad. Sci. USA 89: 922-926) and secreted, soluble furin (hereafter, “furin”; Bravo, D. A. et al (1994) J. Biol. Chem. 269: 25830-25837; and Komiyama & Fuller (2000) Biochemistry 39: 15156-15165) were measured by incubating variants with the enzymes (˜0.5 to 2.0 nM) for 45 min to 1 h at 21° C. in one of two enzyme assay buffers. For Kex2, the buffer was 200 mM Bistris (pH 7.27) containing 1 mM CaCl₂ and 0.1% Triton X-100; and for furin, the buffer was 20 mM NaMES (pH 7.0) containing 1 mM CaCl₂ and 0.1% Triton X-100 for furin.

Experiment [7] concerns the target T1, secreted, soluble furin. In words: equilibrium enzyme inhibition. On the procedure: as §2, §3
Experiment [8] concerns the target T2, secreted, soluble Kex2. The experiment is described as follows: equilibrium enzyme inhibition, fluorogenic substrate. The method, then:
as §1

The target in experiment [9] is T1, secreted, soluble furin. The experiment is described as above. On the procedure: as §1

T1 sequence (P09958 108-715 limits assumed): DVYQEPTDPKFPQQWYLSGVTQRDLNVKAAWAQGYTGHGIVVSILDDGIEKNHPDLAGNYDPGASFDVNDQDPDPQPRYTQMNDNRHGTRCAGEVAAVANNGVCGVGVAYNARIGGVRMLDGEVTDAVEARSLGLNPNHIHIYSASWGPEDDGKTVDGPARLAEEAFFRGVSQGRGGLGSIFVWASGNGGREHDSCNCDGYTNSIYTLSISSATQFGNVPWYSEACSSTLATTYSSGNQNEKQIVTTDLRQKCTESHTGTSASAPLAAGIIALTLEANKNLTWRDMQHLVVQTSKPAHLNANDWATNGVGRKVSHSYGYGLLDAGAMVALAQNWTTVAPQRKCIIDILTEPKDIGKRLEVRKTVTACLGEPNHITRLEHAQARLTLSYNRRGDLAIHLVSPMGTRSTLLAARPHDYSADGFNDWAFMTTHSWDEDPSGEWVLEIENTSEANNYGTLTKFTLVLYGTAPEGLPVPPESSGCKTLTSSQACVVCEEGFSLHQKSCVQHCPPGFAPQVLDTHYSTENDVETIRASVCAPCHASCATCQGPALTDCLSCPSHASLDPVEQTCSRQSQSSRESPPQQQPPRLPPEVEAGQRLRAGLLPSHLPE

B1: Asn50Asp-R4K1-eglin (designed binder)
chain: SMGSELKSFPEVVGKTVDQAREYFTLHYPQYDVYFLPEGSRVTKDLRYDRVRVFYNPGTNVVNHVPHVG
On to B1, for which, in the experiment with secreted, soluble furin [1], the binding result is listed as “binds”.

B2: Gly40Ala-R4R1-eglin (designed binder)
chain: SMGSELKSFPEVVGKTVDQAREYFTLHYPQYDVYFLPEASRVTRDLRYNRVRVFYNPGTNVVNHVPHVG
B2: in the experiment with secreted, soluble furin [1], the binding result is recorded as “binds”.

B3: Asp33Gly-R4K1-eglin (designed binder)
chain: SMGSELKSFPEVVGKTVDQAREYFTLHYPQYGVYFLPEGSRVTKDLRYNRVRVFYNPGTNVVNHVPHVG
For B3, the binding result in the experiment with secreted, soluble furin [1] was “binds”.

B4: Ser49-R4R1-eglin (designed binder)
chain: SMGSELKSFPEVVGKTVDQAREYFTLHYPQYDVYFLPEGSRVTRDLRSNRVRVFYNPGTNVVNHVPHVG
notes: R4R1 template; N-terminal Met removed
For B4, the inhibition constant Ki is 0.21 nM with secreted, soluble Kex2 [2]; 4.8 nM with secreted, soluble furin [3]; 2.5 nM with human PC7.

B5: Glu49-R4R1-eglin (designed binder)
chain: SMGSELKSFPEVVGKTVDQAREYFTLHYPQYDVYFLPEGSRVTRDLRENRVRVFYNPGTNVVNHVPHVG
notes: as for B4
Turning to B5, the inhibition constant (Ki) is 0.036 nM with secreted, soluble Kex2 [2]; 0.53 nM with secreted, soluble furin [3]; 2.9 nM with human PC7.

B6: Tyr35Ile-R4R1-eglin (designed binder)
chain: SMGSELKSFPEVVGKTVDQAREYFTLHYPQYDVIFLPEGSRVTRDLRYNRVRVFYNPGTNVVNHVPHVG
Consider B6, for which the binding result with secreted, soluble furin [1] was “binds”.

B7: Leu37Gly-R4K1-eglin (designed binder)
chain: SMGSELKSFPEVVGKTVDQAREYFTLHYPQYDVYFGPEGSRVTKDLRYNRVRVFYNPGTNVVNHVPHVG
notes: R4K1 template; N-terminal Met removed
In the case of B7, the Ki with secreted, soluble Kex2 [4] was determined as 1.6 nM; with secreted, soluble furin [5] it was 29 nM. The “Ki ratio (to R4K1- template)” value with secreted, soluble Kex2 [4] was determined as 0.625; with secreted, soluble furin [5] it was 0.769.

B8: Trp49-R4R1-eglin (designed binder)
chain: SMGSELKSFPEVVGKTVDQAREYFTLHYPQYDVYFLPEGSRVTRDLRWNRVRVFYNPGTNVVNHVPHVG
notes: as for B4
In the case of B8, the Ki in the experiment with secreted, soluble Kex2 [2] is 1.2 nM; with secreted, soluble furin [3] it was 10 nM; with human PC7, 0.47 nM.

B9: R4-eglin (designed binder)
chain: SMGSELKSFPEVVGKTVDQAREYFTLHYPQYDVYFLPEGSRVTLDLRYNRVRVFYNPGTNVVNHVPHVG
notes: N-terminal Met removed; also called R4L1-eglin
On to B9, for which the “fold increase in affinity relative to L1-eglin” value in the experiment with secreted, soluble Kex2 [6] turned out to be 5 fold. Moreover, the “fold enhancement of affinity relative to L1-eglin” value with secreted, soluble furin [7] is 2 to 3 fold. Further, the Ki in the experiment with secreted, soluble Kex2 [8] was found to be 100 µM; with secreted, soluble furin [9], 56 µM.

B10: Asp33Ile-R4K1-eglin (designed binder)
chain: SMGSELKSFPEVVGKTVDQAREYFTLHYPQYIVYFLPEGSRVTKDLRYNRVRVFYNPGTNVVNHVPHVG
B10: the binding result with secreted, soluble furin [1] is “binds”.

B11: Met49-R4R1-eglin (designed binder)
chain: SMGSELKSFPEVVGKTVDQAREYFTLHYPQYDVYFLPEGSRVTRDLRMNRVRVFYNPGTNVVNHVPHVG
notes: as for B4
Take B11: the Ki with secreted, soluble Kex2 [2] came out at 1 nM; in the experiment with secreted, soluble furin [3], 1.6 nM; with human PC7 it was 1.4 nM.

B12: Gly40Pro-R4R1-eglin (designed binder)
chain: SMGSELKSFPEVVGKTVDQAREYFTLHYPQYDVYFLPEPSRVTRDLRYNRVRVFYNPGTNVVNHVPHVG
Consider B12, for which the binding result in the experiment with secreted, soluble furin [1] is given as “binds”.

B13: Asp33Val-R4K1-eglin (designed binder)
chain: SMGSELKSFPEVVGKTVDQAREYFTLHYPQYVVYFLPEGSRVTKDLRYNRVRVFYNPGTNVVNHVPHVG
notes: as for B7
Regarding B13, in the experiment with secreted, soluble Kex2 [4], the inhibitory constant (Ki) was determined as 1.2 nM and the “Ki ratio (to R4K1- template)” value worked out at 0.476. Besides, in the experiment with secreted, soluble furin [5], the affinity, expressed as Ki, was 17 nM and the “Ki ratio (to R4K1- template)” value stood at 0.455.

B14: Tyr49Ala-R4R1-eglin (designed binder)
chain: SMGSELKSFPEVVGKTVDQAREYFTLHYPQYDVYFLPEGSRVTRDLRANRVRVFYNPGTNVVNHVPHVG
notes: R4R1 template; N-terminal Met removed; also called Ala49-R4R1-
In the case of B14, the inhibitory constant (Ki) worked out at 1 nM with secreted, soluble Kex2 [4]; 1.3 nM with secreted, soluble furin [5]; 1 nM in the experiment with secreted, soluble Kex2 [2]; 1.8 nM with secreted, soluble furin [3]; 2.9 nM with human PC7. Further, the “Ki ratio (to R4R1- template)” value with secreted, soluble Kex2 [4] was found to be 1.1; with secreted, soluble furin [5], 0.526. For the same molecule, in the experiment with secreted, soluble furin [5], the “fold increase in affinity (relative to R4R1-eglin)” value is approximately 2 fold.

B15: M4K1-eglin (designed binder)
chain: SMGSELKSFPEVVGKTVDQAREYFTLHYPQYDVYFLPEGSMVTKDLRYNRVRVFYNPGTNVVNHVPHVG
notes: N-terminal Met removed
In the case of B15, the “fold decrease of Ka relative to M4R1-eglin” value with secreted, soluble Kex2 [6] stood at 13.2 fold; with secreted, soluble furin [7], 4.7 fold. Moreover, the inhibition constant (Ki) in the experiment with secreted, soluble Kex2 [8] came to 0.0045 µM; in the experiment with secreted, soluble furin [9], 17 µM.

B16: Leu47Val-R4R1-eglin (designed binder)
chain: SMGSELKSFPEVVGKTVDQAREYFTLHYPQYDVYFLPEGSRVTRDVRYNRVRVFYNPGTNVVNHVPHVG
For B16, the binding result in the experiment with secreted, soluble furin [1] was “binds”.
